B1: Ab1 (antibody, human IgG1, V domains shown)
VH: EVQLVQSGAEVKKPGATVKISCKVSGYTFITYWISWVQQAPGKGLEWMGAIDPSDSDARYSPSFQGRVTITADTSTDTAYMELSSLRSEDTAVYYCAKSDPGYSGYSLLYGFDSWGQGTLVTVSS
VL: DIVMTQTPLSSPVTLGQPASISCRSSQSLVQRNGNTYLSWLQQRPGQPPRLLIYQVSNRYSGVPDRFSGSGAGTDFTLKISRVEAEDVGVYYCGQGAHLPLTFGQGTKVEIK
notes: Lead antibody; also called Abl
B2: Ab2 (antibody, human IgG1, V domains shown)
VH: EVQLVQSGAEVKKPGATVKISCKVSGYTFITYWISWVQQAPGKGLEWMGAIDPSDSDARYSPSFQGRVTITADTSTDTAYMELSSLRSEDTAVYYCAKSDPGYSGYSLLYGFDSWGQGTLVTVSS
VL: DIVMTQTPLSSPVTLGQPASISCRSSQSLVQRNGNTYLSWYQQRPGQPPRLLIYQVSNRYSGVPDRFSGSGAGTDFTLKISRVEAEDVGVYYCGQGAHLPLTFGQGTKVEIK
B3: Ab3 (antibody, human IgG1, V domains shown)
VH: EVQLVQSGAEVKKPGATVKISCKVSGYTFITYWISWVQQAPGKGLEWMGAIDPSDSDARYSPSFQGRVTITADTSTDTAYMELSSLRSEDTAVYYCAKSDPGYSGYSLLYGFDSWGQGTLVTVSS
VL: DVVMTQSPLSLPVTLGQPASISCRSSQSLVQRNGNTYLSWFQQRPGQSPRLLIYQVSNRYSGVPDRFSGSGSGTDFTLKISRVEAEDVGVYYCGQGAHLPLTFGQGTKVEIK
B4: Ab5 (antibody, human IgG1, V domains shown)
VH: EVQLVQSGAEVKKPGATVKISCKVSGYTFITYWISWVQQAPGKGLEWMGAIDPSDSDARYSPSFQGRVTITADTSTDTAYMELSSLRSEDTAVYYCAKSDPGYSGYSLLYGFDSWGQGTLVTVSS
VL: DVVMTQSPLSLPVTLGQPASISCRSSQSLVQRNGNTYLSWYQQRPGQPPRLLIYQVSNRYSGVPDRFSGSGSGTDFTLKISRVEAEDVGVYYCGQGAHLPLTFGQGTKVEIK
B5: Ab7 (antibody, human IgG1, V domains shown)
VH: EVQLVQSGAEVKKPGATVKISCKVSGYTFITYWISWVQQAPGKGLEWMGAIDPSDSDARYSPSFQGRVTITADTSTDTAYMELSSLRSEDTAVYYCAKSDPGYSGYSLLYGFDSWGQGTLVTVSS
VL: DIVMTQSPLSLPVTLGQPASISCRSSQSLVQRNGNTYLSWFQQRPGQSPRLLIYQVSNRYSGVPDRFSGSGSGTDFTLKISRVEAEDVGVYYCGQGAHLPLTFGQGTKVEIK
B6: Ab8 (antibody, human IgG1, V domains shown)
VH: EVQLVQSGAEVKKPGATVKISCKVSGYTFITYWISWVQQAPGKGLEWMGAIDPSDSDARYSPSFQGRVTITADTSTDTAYMELSSLRSEDTAVYYCAKSDPGYSGYSLLYGFDSWGQGTLVTVSS
VL: DIVMTQSPLSLPVTLGQPASISCRSSQSLVQRNGNTYLSWYQQRPGQSPRLLIYQVSNRYSGVPDRFSGSGSGTDFTLKISRVEAEDVGVYYCGQGAHLPLTFGQGTKVEIK
B7: Ab9 (antibody, human IgG1, V domains shown)
VH: EVQLVQSGAEVKKPGATVKISCKVSGYTFITYWISWVQQAPGKGLEWMGAIDPSDSDARYSPSFQGRVTITADTSTDTAYMELSSLRSEDTAVYYCAKSDPGYSGYSLLYGFDSWGQGTLVTVSS
VL: DIVMTQSPLSLPVTLGQPASISCRSSQSLVQRNGNTYLSWYQQRPGQPPRLLIYQVSNRYSGVPDRFSGSGSGTDFTLKISRVEAEDVGVYYCGQGAHLPLTFGQGTKVEIK
B8: Ab11 (antibody, human IgG1, V domains shown)
VH: EVQLVQSGAEVKKPGATVKISCKVSGYSFITYWISWVQQAPGKGLEWMGAIDPSDSDARYSPSFQGRVTITADTSTDTAYMELSSLRSEDTAVYYCAKSDPGYSGYSLLYGFDSWGQGTLVTVSS
VL: DIVMTQTPLSSPVTLGQPASISCRSSQSLVQRNGNTYLSWLQQRPGQPPRLLIYQVSNRYSGVPDRFSGSGAGTDFTLKISRVEAEDVGVYYCGQGAHLPLTFGQGTKVEIK
B9: Ab12 (antibody, human IgG1, V domains shown)
VH: EVQLVQSGAEVKKPGATVKISCKVSGYSFITYWISWVQQAPGKGLEWMGAIDPSDSDARYSPSFQGRVTITADTSTDTAYMELSSLRSEDTAVYYCAKSDPGYSGYSLLYGFDSWGQGTLVTVSS
VL: DIVMTQTPLSSPVTLGQPASISCRSSQSLVQRNGNTYLSWYQQRPGQPPRLLIYQVSNRYSGVPDRFSGSGAGTDFTLKISRVEAEDVGVYYCGQGAHLPLTFGQGTKVEIK
B10: Ab13 (antibody, human IgG1, V domains shown)
VH: EVQLVQSGAEVKKPGATVKISCKVSGYSFITYWISWVQQAPGKGLEWMGAIDPSDSDARYSPSFQGRVTITADTSTDTAYMELSSLRSEDTAVYYCAKSDPGYSGYSLLYGFDSWGQGTLVTVSS
VL: DVVMTQSPLSLPVTLGQPASISCRSSQSLVQRNGNTYLSWFQQRPGQSPRLLIYQVSNRYSGVPDRFSGSGSGTDFTLKISRVEAEDVGVYYCGQGAHLPLTFGQGTKVEIK
B11: Ab14 (antibody, human IgG1, V domains shown)
VH: EVQLVQSGAEVKKPGATVKISCKVSGYSFITYWISWVQQAPGKGLEWMGAIDPSDSDARYSPSFQGRVTITADTSTDTAYMELSSLRSEDTAVYYCAKSDPGYSGYSLLYGFDSWGQGTLVTVSS
VL: DVVMTQSPLSLPVTLGQPASISCRSSQSLVQRNGNTYLSWYQQRPGQSPRLLIYQVSNRYSGVPDRFSGSGSGTDFTLKISRVEAEDVGVYYCGQGAHLPLTFGQGTKVEIK
B12: Ab15 (antibody, human IgG1, V domains shown)
VH: EVQLVQSGAEVKKPGATVKISCKVSGYSFITYWISWVQQAPGKGLEWMGAIDPSDSDARYSPSFQGRVTITADTSTDTAYMELSSLRSEDTAVYYCAKSDPGYSGYSLLYGFDSWGQGTLVTVSS
VL: DVVMTQSPLSLPVTLGQPASISCRSSQSLVQRNGNTYLSWYQQRPGQPPRLLIYQVSNRYSGVPDRFSGSGSGTDFTLKISRVEAEDVGVYYCGQGAHLPLTFGQGTKVEIK
B13: Ab17 (antibody, human IgG1, V domains shown)
VH: EVQLVQSGAEVKKPGATVKISCKVSGYSFITYWISWVQQAPGKGLEWMGAIDPSDSDARYSPSFQGRVTITADTSTDTAYMELSSLRSEDTAVYYCAKSDPGYSGYSLLYGFDSWGQGTLVTVSS
VL: DIVMTQSPLSLPVTLGQPASISCRSSQSLVQRNGNTYLSWFQQRPGQSPRLLIYQVSNRYSGVPDRFSGSGSGTDFTLKISRVEAEDVGVYYCGQGAHLPLTFGQGTKVEIK
B14: Ab18 (antibody, human IgG1, V domains shown)
VH: EVQLVQSGAEVKKPGATVKISCKVSGYSFITYWISWVQQAPGKGLEWMGAIDPSDSDARYSPSFQGRVTITADTSTDTAYMELSSLRSEDTAVYYCAKSDPGYSGYSLLYGFDSWGQGTLVTVSS
VL: DIVMTQSPLSLPVTLGQPASISCRSSQSLVQRNGNTYLSWYQQRPGQSPRLLIYQVSNRYSGVPDRFSGSGSGTDFTLKISRVEAEDVGVYYCGQGAHLPLTFGQGTKVEIK
B15: Ab19 (antibody, human IgG1, V domains shown)
VH: EVQLVQSGAEVKKPGATVKISCKVSGYSFITYWISWVQQAPGKGLEWMGAIDPSDSDARYSPSFQGRVTITADTSTDTAYMELSSLRSEDTAVYYCAKSDPGYSGYSLLYGFDSWGQGTLVTVSS
VL: DIVMTQSPLSLPVTLGQPASISCRSSQSLVQRNGNTYLSWYQQRPGQPPRLLIYQVSNRYSGVPDRFSGSGSGTDFTLKISRVEAEDVGVYYCGQGAHLPLTFGQGTKVEIK
B16: Ab20 (antibody, human IgG1, V domains shown)
VH: EVQLVQSGAEVKKPGATVKISCKVSGYSFITYWISWVQQAPGKGLEWMGAIDPSDSDARYSPSFQGRVTITADTSTDTAYMELSSLRSEDTAVYYCAKSDPGYSGYSLLYGFDSWGQGTLVTVSS
VL: DIVMTQSPLSLPVTLGQPASISCRSSQSLVQRNGNTYLSWFQQRPGQPPRLLIYQVSNRYSGVPDRFSGSGSGTDFTLKISRVEAEDVGVYYCGQGAHLPLTFGQGTKVEIK
B17: Ab21 (antibody, human IgG1, V domains shown)
VH: EVQLVQSGAEVKKPGATVKISCKVSGYSFITYWISWVQQAPGKGLEWMGAIDPSDSDARYSPSFQGRVTITADKSTDTAYMELSSLRSEDTAVYYCAKSDPGYSGYSLLYGFDSWGQGTLVTVSS
VL: DIVMTQTPLSSPVTLGQPASISCRSSQSLVQRNGNTYLSWLQQRPGQPPRLLIYQVSNRYSGVPDRFSGSGAGTDFTLKISRVEAEDVGVYYCGQGAHLPLTFGQGTKVEIK
B18: Ab22 (antibody, human IgG1, V domains shown)
VH: EVQLVQSGAEVKKPGATVKISCKVSGYSFITYWISWVQQAPGKGLEWMGAIDPSDSDARYSPSFQGRVTITADKSTDTAYMELSSLRSEDTAVYYCAKSDPGYSGYSLLYGFDSWGQGTLVTVSS
VL: DIVMTQTPLSSPVTLGQPASISCRSSQSLVQRNGNTYLSWYQQRPGQPPRLLIYQVSNRYSGVPDRFSGSGAGTDFTLKISRVEAEDVGVYYCGQGAHLPLTFGQGTKVEIK
B19: Ab23 (antibody, human IgG1, V domains shown)
VH: EVQLVQSGAEVKKPGATVKISCKVSGYSFITYWISWVQQAPGKGLEWMGAIDPSDSDARYSPSFQGRVTITADKSTDTAYMELSSLRSEDTAVYYCAKSDPGYSGYSLLYGFDSWGQGTLVTVSS
VL: DVVMTQSPLSLPVTLGQPASISCRSSQSLVQRNGNTYLSWFQQRPGQSPRLLIYQVSNRYSGVPDRFSGSGSGTDFTLKISRVEAEDVGVYYCGQGAHLPLTFGQGTKVEIK
B20: Ab24 (antibody, human IgG1, V domains shown)
VH: EVQLVQSGAEVKKPGATVKISCKVSGYSFITYWISWVQQAPGKGLEWMGAIDPSDSDARYSPSFQGRVTITADKSTDTAYMELSSLRSEDTAVYYCAKSDPGYSGYSLLYGFDSWGQGTLVTVSS
VL: DVVMTQSPLSLPVTLGQPASISCRSSQSLVQRNGNTYLSWYQQRPGQSPRLLIYQVSNRYSGVPDRFSGSGSGTDFTLKISRVEAEDVGVYYCGQGAHLPLTFGQGTKVEIK

Target: recombinantly produced human-NGF (human, UniProt P01138 122-241, limits assumed)
Sequence (P01138 122-241 limits assumed): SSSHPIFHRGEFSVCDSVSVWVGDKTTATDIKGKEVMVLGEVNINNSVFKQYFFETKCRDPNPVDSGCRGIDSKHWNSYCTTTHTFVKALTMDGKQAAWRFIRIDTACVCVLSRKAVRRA
Assay: ELISA, human NGF coated, IgG titrated
Description: NGF binding ELISA assay: In human NGF binding ELISA, Corning 3366 high binding 96 well plates were coated with recombinantly produced human-NGF at 1 μg per ml, 50 μl/well in 1×PBS, and incubated overnight at 4° C. The plates were washed and blocked with 250 μl of 1×PBS/1% BSA at least 30 minutes at room temperature. 50 μl of culture supernatants, after 1:1 diluted by the PBS/BSA diluent, or the purified antibodies diluted serially from a certain concentration with the diluent, were added per well, and incubated at 37° C. for 2 hours. After washing, a secondary antibody, goat anti-human IgG Fc AP (Southern biotech) was applied at a dilution of 1:3000 in PBS/BSA. The plates were incubated for 1 hour at RT and washed. After adding the PNPP substrate, the ODs at 405 nm were read.
NGF binding ELISA assay: NGF binding ELISA assay was performed as described in Example 1.

In order of falling EC50:
1. B7  0.0876 ng/mL
2. B12  0.046 ng/mL
3. B10  0.043 ng/mL
4. B19  0.0405 ng/mL
5. B17  0.0403 ng/mL
6. B20  0.0399 ng/mL
7. B18  0.0382 ng/mL
8. B9  0.0365 ng/mL
9. B11  0.0351 ng/mL
10. B15  0.0324 ng/mL
11. B8  0.032 ng/mL
12. B14  0.0271 ng/mL
13. B16  0.0215 ng/mL
14. B6  0.0205 ng/mL
15. B2  0.0197 ng/mL
16. B1  0.0185 ng/mL
17. B3  0.017 ng/mL
18. B13  0.016 ng/mL
19. B4  0.0139 ng/mL
20. B5  0.00988 ng/mL

From patent publication US20230220057A1 (STAIDSON BEIJING BIOPHARMACEUTICALS, published 2023)
